# Source: PMC4653635, “Folding of newly translated membrane protein CCR5 is assisted by the chaperonin GroEL-GroES” (Scientific Reports, 2015)
# B1: eotaxin (CCL11) (ligand)
# chain: not shown
# notes: eotaxin (CCL11)
# Key:
# Details in all cases: one partner purified
# [1] = target: T1, Human CC chemokine receptor type 5 (CCR5), C-terminally 6 × His-tagged (human, UniProt P51681 1-352); assay: quartz crystal microbalance (QCM); CCR5 made without added chaperonin; supernatant diluted 20 times and immobilised on a Q-Sense His-tag Capturing Sensor; CCL11 flowed over; 25 °C; 25 mM HEPES, 0.12 M NaCl, 0.2% Brij35, pH 7.6; 1:1 binding model
# T1 construct: CC chemokine receptor type 5 (CCR5), human; 352 amino acids, 40.5 kDa as printed; cloned in pIVEX2.3d; The same construct was made with no chaperonin, with GroEL-GroES (0.04:0.08 uM) or with GroEL alone (0.04 uM) added to the cell-free reaction; these three samples are kept apart as assays; For one gel, BODIPY-labelled lysines were incorporated during translation; also called CCR5 receptor; …
# [2] = target: T1, Human CC chemokine receptor type 5 …; assay: quartz crystal microbalance (QCM); CCR5 made with GroEL alone added to the cell-free reaction; supernatant diluted 20 times and immobilised on a Q-Sense His-tag Capturing Sensor; CCL11 flowed over; 25 °C; 25 mM HEPES, 0.12 M NaCl, 0.2% Brij35, pH 7.6; 1:1 binding model
# [3] = target: T1, Human CC chemokine receptor type 5 …; assay: quartz crystal microbalance (QCM); CCR5 made with GroEL-GroES added to the cell-free reaction; supernatant diluted 20 times and immobilised on a Q-Sense His-tag Capturing Sensor; CCL11 flowed over; 25 °C; 25 mM HEPES, 0.12 M NaCl, 0.2% Brij35, pH 7.6; 1:1 binding model
# T1 sequence (P51681 whole entry): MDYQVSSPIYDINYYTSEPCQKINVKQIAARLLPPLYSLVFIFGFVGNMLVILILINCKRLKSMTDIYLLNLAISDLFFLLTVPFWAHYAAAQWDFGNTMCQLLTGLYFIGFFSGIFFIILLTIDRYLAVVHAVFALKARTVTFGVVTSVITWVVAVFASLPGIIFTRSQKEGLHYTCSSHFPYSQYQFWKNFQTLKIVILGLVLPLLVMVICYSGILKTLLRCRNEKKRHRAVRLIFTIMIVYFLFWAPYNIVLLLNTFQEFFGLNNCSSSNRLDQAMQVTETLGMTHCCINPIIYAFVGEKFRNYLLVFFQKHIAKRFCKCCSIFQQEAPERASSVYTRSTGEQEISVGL
binder,measurement,setting,value
B1,Kd,[1],97 nM
same,koff,[1],0.00046 s⁻¹
same,kon,[1],4700 M⁻¹ s⁻¹
same,Kd,[2],55 nM
same,koff,[2],0.00025 s⁻¹
same,kon,[2],4600 M⁻¹ s⁻¹
same,Kd,[3],44 nM
same,koff,[3],0.0002 s⁻¹
same,kon,[3],4500 M⁻¹ s⁻¹
